Source: article PMC10208982, “Structural basis of catalytic activation in human splicing” (Nature, 2023)

Assays:
[1] = target: T1, PRP2 (DHX16) 137-1022;PPIL4 (Homo sapiens;Homo sapiens, UniProt O60231;Q8WUA2 137-1022;1-492, |); assay: EMSA; purified co-expressed complex; 2 mM Mg2+; EMSA: 50 nM RNA, 0.1-8 uM protein, 20 mM HEPES-KOH pH 7.5, 50 mM KCl, 2 mM MgCl2, 0.1 mg/ml BSA, 5% glycerol, 30 min room temperature; 5% native gel in Tris-glycine; settings: protein: recombinant;recombinant; tags: N-terminal Twin-StrepII;untagged (Twin-StrepII removed by HRV-3C); copies: 1;1; label: Cy5 at 3' end of S3; 18 bp duplex, 3' overhang 30 nt on S4
T1 sequence 1: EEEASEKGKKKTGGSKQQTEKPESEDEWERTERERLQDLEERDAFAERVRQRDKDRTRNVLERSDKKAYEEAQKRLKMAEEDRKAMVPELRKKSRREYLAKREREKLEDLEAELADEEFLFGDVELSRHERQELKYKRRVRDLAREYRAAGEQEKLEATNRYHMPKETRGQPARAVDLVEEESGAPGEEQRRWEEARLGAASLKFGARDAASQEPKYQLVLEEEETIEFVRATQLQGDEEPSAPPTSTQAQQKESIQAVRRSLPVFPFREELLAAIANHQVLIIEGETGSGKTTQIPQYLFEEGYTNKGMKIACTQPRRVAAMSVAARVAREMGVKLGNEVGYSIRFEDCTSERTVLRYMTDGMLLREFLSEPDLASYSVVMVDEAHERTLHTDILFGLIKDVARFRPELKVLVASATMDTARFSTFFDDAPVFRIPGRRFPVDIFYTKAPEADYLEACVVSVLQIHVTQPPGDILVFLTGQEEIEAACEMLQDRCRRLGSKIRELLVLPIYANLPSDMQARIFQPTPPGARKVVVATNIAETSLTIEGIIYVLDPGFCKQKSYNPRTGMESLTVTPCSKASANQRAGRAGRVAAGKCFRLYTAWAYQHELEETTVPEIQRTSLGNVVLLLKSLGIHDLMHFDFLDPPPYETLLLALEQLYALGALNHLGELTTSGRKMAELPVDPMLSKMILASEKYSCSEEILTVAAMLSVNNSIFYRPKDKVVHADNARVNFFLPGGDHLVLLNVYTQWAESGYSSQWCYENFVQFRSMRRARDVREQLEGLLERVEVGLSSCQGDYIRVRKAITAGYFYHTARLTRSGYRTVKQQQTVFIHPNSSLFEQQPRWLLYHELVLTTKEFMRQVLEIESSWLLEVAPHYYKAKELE
T1 sequence 2: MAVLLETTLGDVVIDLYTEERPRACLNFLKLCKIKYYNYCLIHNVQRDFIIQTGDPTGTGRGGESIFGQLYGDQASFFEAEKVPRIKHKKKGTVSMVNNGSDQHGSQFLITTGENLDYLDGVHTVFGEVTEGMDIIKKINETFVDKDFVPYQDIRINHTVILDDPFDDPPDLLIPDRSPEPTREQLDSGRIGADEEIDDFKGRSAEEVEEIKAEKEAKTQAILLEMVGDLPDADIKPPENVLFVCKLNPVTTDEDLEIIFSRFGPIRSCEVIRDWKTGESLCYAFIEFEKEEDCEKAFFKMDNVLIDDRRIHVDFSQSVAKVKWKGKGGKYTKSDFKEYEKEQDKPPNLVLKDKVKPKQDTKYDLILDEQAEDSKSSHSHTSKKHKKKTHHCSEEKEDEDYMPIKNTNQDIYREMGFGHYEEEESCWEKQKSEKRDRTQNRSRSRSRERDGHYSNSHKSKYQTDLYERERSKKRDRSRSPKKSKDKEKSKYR

[2] = target: T2, PRP2 (DHX16) 137-1022;GPKOW (Homo sapiens;Homo sapiens, UniProt O60231;Q92917 137-1022;1-476, |); assay: EMSA; complex assembled in vitro; 2 mM Mg2+; EMSA: 50 nM RNA, 0.1-8 uM protein, 20 mM HEPES-KOH pH 7.5, 50 mM KCl, 2 mM MgCl2, 0.1 mg/ml BSA, 5% glycerol, 30 min room temperature; 5% native gel in Tris-glycine; settings: protein: recombinant;recombinant; tags: N-terminal Twin-StrepII;N-terminal Twin-StrepII; copies: 1;1; label: Cy5 at 3' end of S3; 18 bp duplex, 3' overhang 30 nt on S4
T2 sequence 1: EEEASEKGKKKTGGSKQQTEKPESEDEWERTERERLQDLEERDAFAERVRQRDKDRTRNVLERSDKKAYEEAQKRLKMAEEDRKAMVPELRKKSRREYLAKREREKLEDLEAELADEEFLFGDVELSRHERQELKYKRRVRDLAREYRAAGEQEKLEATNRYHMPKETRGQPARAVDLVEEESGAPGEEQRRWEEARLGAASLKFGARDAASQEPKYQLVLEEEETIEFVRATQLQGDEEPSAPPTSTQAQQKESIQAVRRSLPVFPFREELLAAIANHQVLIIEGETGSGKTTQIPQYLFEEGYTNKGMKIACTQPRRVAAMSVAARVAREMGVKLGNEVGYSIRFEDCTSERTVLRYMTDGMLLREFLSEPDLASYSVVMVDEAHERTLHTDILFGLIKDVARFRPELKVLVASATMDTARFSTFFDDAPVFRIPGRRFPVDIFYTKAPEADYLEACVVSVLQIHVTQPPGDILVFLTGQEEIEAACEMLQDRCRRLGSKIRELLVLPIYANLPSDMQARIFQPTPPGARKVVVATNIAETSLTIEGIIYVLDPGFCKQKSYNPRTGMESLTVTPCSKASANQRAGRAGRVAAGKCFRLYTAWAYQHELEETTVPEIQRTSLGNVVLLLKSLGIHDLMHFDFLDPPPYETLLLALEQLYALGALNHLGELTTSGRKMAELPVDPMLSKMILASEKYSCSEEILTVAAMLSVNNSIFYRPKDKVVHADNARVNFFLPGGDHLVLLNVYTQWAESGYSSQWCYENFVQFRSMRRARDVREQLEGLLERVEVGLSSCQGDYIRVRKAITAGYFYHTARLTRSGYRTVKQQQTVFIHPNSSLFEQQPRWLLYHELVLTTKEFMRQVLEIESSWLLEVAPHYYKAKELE
T2 sequence 2: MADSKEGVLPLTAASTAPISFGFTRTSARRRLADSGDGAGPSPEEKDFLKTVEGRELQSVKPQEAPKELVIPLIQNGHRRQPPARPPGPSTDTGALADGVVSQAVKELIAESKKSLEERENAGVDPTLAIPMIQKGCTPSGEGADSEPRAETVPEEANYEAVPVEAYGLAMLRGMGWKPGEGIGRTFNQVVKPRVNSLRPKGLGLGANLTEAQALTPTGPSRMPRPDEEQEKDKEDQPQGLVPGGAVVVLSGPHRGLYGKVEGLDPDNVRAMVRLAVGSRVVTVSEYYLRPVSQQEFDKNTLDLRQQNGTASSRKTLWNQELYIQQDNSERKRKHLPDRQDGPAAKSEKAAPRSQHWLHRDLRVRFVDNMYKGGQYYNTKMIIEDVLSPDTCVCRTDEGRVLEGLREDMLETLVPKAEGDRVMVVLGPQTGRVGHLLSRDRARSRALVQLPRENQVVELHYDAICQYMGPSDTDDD

PPIL4 = target: T3, PPIL4 (Homo sapiens, UniProt Q8WUA2 1-492); assay: EMSA; no PRP2; 2 mM Mg2+; EMSA: 50 nM RNA, 0.1-8 uM protein, 20 mM HEPES-KOH pH 7.5, 50 mM KCl, 2 mM MgCl2, 0.1 mg/ml BSA, 5% glycerol, 30 min room temperature; 5% native gel in Tris-glycine; settings: protein: recombinant; tags: untagged (Twin-StrepII removed by HRV-3C); label: Cy5 at 3' end of S3; 18 bp duplex, 3' overhang 30 nt on S4
T3 sequence: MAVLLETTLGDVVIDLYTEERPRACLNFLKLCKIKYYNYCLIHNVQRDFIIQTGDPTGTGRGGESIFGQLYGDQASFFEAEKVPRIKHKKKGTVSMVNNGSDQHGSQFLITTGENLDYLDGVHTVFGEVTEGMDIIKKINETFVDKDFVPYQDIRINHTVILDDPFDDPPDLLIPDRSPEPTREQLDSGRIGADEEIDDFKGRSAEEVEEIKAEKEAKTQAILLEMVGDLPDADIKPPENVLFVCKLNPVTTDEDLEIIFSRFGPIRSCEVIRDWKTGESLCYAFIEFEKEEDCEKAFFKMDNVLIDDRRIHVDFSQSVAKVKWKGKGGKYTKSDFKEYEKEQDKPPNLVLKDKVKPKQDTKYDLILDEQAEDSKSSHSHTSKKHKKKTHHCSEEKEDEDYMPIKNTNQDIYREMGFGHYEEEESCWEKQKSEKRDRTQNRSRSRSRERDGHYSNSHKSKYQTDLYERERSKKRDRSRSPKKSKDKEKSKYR

GPKOW = target: T4, GPKOW (Homo sapiens, UniProt Q92917 1-476); assay: EMSA; 2 mM Mg2+; EMSA: 50 nM RNA, 0.1-8 uM protein, 20 mM HEPES-KOH pH 7.5, 50 mM KCl, 2 mM MgCl2, 0.1 mg/ml BSA, 5% glycerol, 30 min room temperature; 5% native gel in Tris-glycine; settings: protein: recombinant; tags: N-terminal Twin-StrepII; label: Cy5 at 3' end of S3; 18 bp duplex, 3' overhang 30 nt on S4
T4 sequence: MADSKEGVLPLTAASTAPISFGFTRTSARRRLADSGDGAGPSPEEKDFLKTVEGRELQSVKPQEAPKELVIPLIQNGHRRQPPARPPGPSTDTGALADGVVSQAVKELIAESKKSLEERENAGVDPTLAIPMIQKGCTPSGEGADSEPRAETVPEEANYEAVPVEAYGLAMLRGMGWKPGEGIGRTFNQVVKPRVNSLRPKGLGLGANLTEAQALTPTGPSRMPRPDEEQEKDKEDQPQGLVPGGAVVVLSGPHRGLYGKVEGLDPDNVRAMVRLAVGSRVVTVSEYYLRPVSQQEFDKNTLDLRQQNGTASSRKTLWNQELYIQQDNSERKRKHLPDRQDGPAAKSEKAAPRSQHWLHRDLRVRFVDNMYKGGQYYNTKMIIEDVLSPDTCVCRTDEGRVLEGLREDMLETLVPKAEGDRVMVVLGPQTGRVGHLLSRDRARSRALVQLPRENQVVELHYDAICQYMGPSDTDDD

PRP2 (DHX16) 137-1022 = target: T5, PRP2 (DHX16) 137-1022 (Homo sapiens, UniProt O60231 137-1022); assay: as above; settings: protein: recombinant; tags: N-terminal Twin-StrepII; label: Cy5 at 3' end of S3; 18 bp duplex, 3' overhang 30 nt on S4
T5 sequence: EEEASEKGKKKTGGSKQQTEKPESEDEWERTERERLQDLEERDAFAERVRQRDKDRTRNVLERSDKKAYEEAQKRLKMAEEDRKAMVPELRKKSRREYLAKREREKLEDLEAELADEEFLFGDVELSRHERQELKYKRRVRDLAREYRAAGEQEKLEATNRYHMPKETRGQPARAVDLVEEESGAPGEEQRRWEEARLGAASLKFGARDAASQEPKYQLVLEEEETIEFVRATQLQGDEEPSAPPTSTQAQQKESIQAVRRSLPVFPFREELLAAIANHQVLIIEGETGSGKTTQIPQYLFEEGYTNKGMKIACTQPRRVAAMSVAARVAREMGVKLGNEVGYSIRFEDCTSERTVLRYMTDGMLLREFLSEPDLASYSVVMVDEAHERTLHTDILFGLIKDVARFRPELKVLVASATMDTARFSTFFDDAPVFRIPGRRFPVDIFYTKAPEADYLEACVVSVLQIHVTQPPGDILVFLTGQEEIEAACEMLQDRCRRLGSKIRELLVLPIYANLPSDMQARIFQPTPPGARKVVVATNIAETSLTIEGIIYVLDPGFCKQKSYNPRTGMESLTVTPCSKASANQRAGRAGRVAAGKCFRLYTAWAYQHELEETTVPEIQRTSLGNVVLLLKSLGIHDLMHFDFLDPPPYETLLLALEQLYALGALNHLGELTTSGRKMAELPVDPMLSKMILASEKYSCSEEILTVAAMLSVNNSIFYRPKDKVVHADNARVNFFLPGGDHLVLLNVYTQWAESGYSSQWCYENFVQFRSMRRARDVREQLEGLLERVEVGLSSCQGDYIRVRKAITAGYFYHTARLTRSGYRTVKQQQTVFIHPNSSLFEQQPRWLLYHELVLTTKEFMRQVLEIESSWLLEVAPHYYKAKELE

Measured: binding result

B1: Cy5 RNA duplex with 30-nt 3' overhang (dsRNA)
RNA 1: GCGCCUACGGAGCUGGUGGCGUAGGCGCAAAAAAAAAAAAAAAAAAAA
RNA 2: CACCAGCUCCGUAGGCGC
binds: all assays above
